Data taken from publication PMC8751750, “Effect of using different co-ligands during ^99mTc-labeling of J18 peptide on SK-MES-1 cell binding and tumor targeting” (Iranian Journal of Basic Medical Sciences, 2021).
Entries after “also recorded” stand apart in the source; their conditions may differ. Peptide text beside a SMILES is read from it.

What was measured:
A-549 cells = settings: previously reported, listed as 99mTc-HYNIC-(Ser)3-J18 (tricine/EDDA); cited from earlier work
From the text: Table 1 Overview of affinity binding ^99mTc-HYNIC-(Ser)3-J18 on SK-MES-1 vs A-549 cell line | column: A-549 / Tricine; A-549 / tricine/EDDA

SK-MES-1 tumors = test: Biodistribution in SK-MES-1 xenografted nude mice; assay type: in vivo, female C57 nu/nu mice; settings: SK-MES-1 xenograft nude mice, mean ± SD, n=4
Experimental: (§1) The tumor biodistribution and targeting properties of the radiolabeled peptides were carried out in female C57 nu/nu mice bearing SK-MES-1 (Pasture Institute, North Branch and Amol, Iran). The tumor was grafted by subcutaneous injection of SK-MES-1 cells at a concentration of 4×10^6 cells/mouse into the right front flank of the mice and left to grow over a period of 20 days. The mice were ready for biodistribution when tumor size reached 0.7–1 cm^3 in mean diameter, all mice received intravenous co-injections of (^99mTc) Tc-HYNIC-(Ser)3-J18 peptide 1 or (^99mTc )Tc-HYNIC-(Ser)3-J18 peptide 2 (1 μg in 100 μl buffer) after 1, 2, and 4 hr post-injection, respectively (n=4 mice per group). In order to measure the radiopeptides’ nonspecific uptake of the radiopeptides, one group of four animals was injected with 300 μg of non-labeled peptide in a 50 μl buffer. The mice in the blocking group were euthanized 2 hr after the injection. Mice organ and tissue samples were collected, and radioactivity uptake was calculated as a percentage of the administered dose per gram tissue (%ID/g).

[1] = Biodistribution in SK-MES-1 xenografted nude mice; assay type: in vivo, female C57 nu/nu mice; settings: female, C57 nu/nu, mouse, in vivo, iv, total radioactivity, SK-MES-1 xenograft nude mice, n=4
Experimental: as §1

[2] = test system: SK-MES-1, A-549, SKOV-3 and MCF-7 cells; test: In vitro receptor binding of radiolabeled peptides on four cell lines; design: species or system human; settings: 40 nM radiolabeled peptide, 2 hr at 37 °C
Experimental: (§2) The in vitro receptor binding of the^ 99mTc-labeled peptide was evaluated using SK-MES-1 a human lung squamous cell carcinoma, SKOV-3 human ovarian carcinoma, and A-549 human lung adenocarcinoma epithelial and MCF-7 human breast cancer cell lines. All cell lines were kept at 37 °C in a 5% CO2 incubator and were maintained in Dulbecco’s DMEM-high glucose supplemented with 10% FBS. Cells were plated in 24-well plates at a density of 4×10^5 cells/well in 1 ml of complete medium and incubated for 24 hr to allow in cells to settle. Following a wash with cold serum-free media or PBS, 40 nM radiolabeled peptides in the full medium were given to the cells, which were then incubated at 37 °C for 2 hr. Finally, cells in culture plates were trypsinized and released, and radioactivity in the cells was measured. To determine specific versus nonspecific binding, SK-MES-1 cells were seeded into 12-well plates at a density of 5×10^5 cells/well and incubated with unlabeled peptides at a concentration 500-fold higher than the labeled peptide for 20 min at 37 °C, followed by the addition of the radiolabeled peptide to the wells. These cells were incubated for 2 hr at 37 °C in a humidified incubator.

SK-MES-1 cells [3] = test: Saturation binding assay on SK-MES-1 cells; design: species or system human
Experimental: The affinities of (^99mTc) Tc-HYNIC-peptides were determined utilizing a saturation binding experiment with cultivated cells in vitro for determination of the dissociation constant as KD and the number of binding sites per cell (Bmax). SK-MES-1 cells were incubated for 2 hr at 37 °C with increasing concentrations of (^99mTc) Tc- HYNIC- peptides (0.1, 0.5, 1, 2.5, 5, 25, and 50 nM). One dish served as a blocking sample, and it was immersed in a blocking solution containing a 500-fold excess of the non-labeled peptide. For each concentration, three dishes were utilized. Following incubation, the media was withdrawn, and the cells were trypsinized and collected for Gamma counter activity measurement. Prism 5 software (Ver. 5.0) was used to examine the particular binding data using nonlinear regression.

[4] = Biodistribution in normal mice; assay type: in vivo; settings: normal female NMRI mice, i.v. 1 μg in 100 μl (18.5 MBq), mean±SD, n=4
Experimental: All animal investigations were approved by Mazandaran University of Medical Sciences Research and Ethical Committee in Sari, Iran. Twelve normal female NMRI mice (20–30 g) were randomly divided into three groups of four. 1 μg of (^99mTc) Tc –HYNIC–J18 peptide in 100 μl of buffer (18.5 MBq) was injected into the tail vein. All animals were sacrificed one, four, and twenty-four hours following radiolabeled peptide injection. Mice were euthanized with an appropriate dose of ketamine/xylazine (Sigma, USA) diluted with sterile water (1:3 v/v). Following deep anesthesia, blood was extracted by heart puncture with a 1-mL syringe washed with diluted heparin. Blood, liver, spleen, salivary gland, stomach, kidney, muscle, and bone samples were dissected and weighed, and radioactivity was measured. Except for the intestines, which were computed as a percentage of the injected dose per gram tissue (percent ID/g), the tissue uptake data was calculated as a percentage of the administered dose per total sample.

SK-MES-1 cells [5] = test: Specific binding (blocking with unlabeled peptide) on SK-MES-1 cells; design: species or system human; settings: listed as 99mTc-peptide 2
Experimental: as §2

SMILES: CC(C)C[C@H](NC(=O)[C@H](CO)NC(=O)[C@H](CCCNC(=N)N)NC(=O)[C@H](CO)NC(=O)[C@H](CO)NC(=O)[C@H](CO)NC(=O)c1ccc(NN)nc1)C(=O)N[C@@H](Cc1c[nH]c2ccccc12)C(=O)N[C@@H](CO)C(=O)N[C@@H](CC(=O)O)C(=O)N[C@@H](Cc1ccccc1)C(=O)N[C@@H](Cc1ccc(O)cc1)C(=O)N[C@@H](C)C(=O)N[C@@H](CO)C(=O)N[C@@H](C)C(=O)N[C@@H](CO)C(=O)N[C@@H](CCCNC(=N)N)C(=O)NCC(=O)N1CCC[C@H]1C(=O)O [Peptide 2, (^99mTc) Tc-HYNIC-(Ser)3-J18 with tricine/EDDA, metal not drawn] (HELM PEPTIDE1{[NNc1ccc(C(=O)[*:2])cn1].S.S.S.R.S.L.W.S.D.F.Y.A.S.A.S.R.G.P}$$$$V2.0; C-terminus assumed)
- Kd (A-549 cells): 4.4 ± 0.8 nM
- Intestine uptake (with contents) (SK-MES-1 tumors; 1 hr, i.v. 1 μg in 100 μl): 0.78±0.01 percentage of injected dose per whole sample
- Intestine uptake (with contents) (SK-MES-1 tumors; 2h-blocked (300 μg non-labeled peptide 0.5 hr before), i.v. 1 μg): 0.23±0.09 percentage of injected dose per whole sample
- Intestine uptake (with contents) (SK-MES-1 tumors; 2 hr, i.v. 1 μg in 100 μl): 0.53±0.11 percentage of injected dose per whole sample
- Intestine uptake (with contents) (SK-MES-1 tumors; 4 hr, i.v. 1 μg in 100 μl): 0.03±0.01 percentage of injected dose per whole sample
- tissue to tissue ratio at 2 h ([1]; 1 ug, 2 hr, read-out: Tumor/blood ratio): 2.96
- tissue uptake at 2 h ([1]; 2h-blocked (300 μg non-labeled peptide 0.5 hr before), i.v. 1 μg, mean ± SD, read-out: Tumor uptake): 0.43 ± 0.05 %ID/g
- cellular affinity, in words [2]: strongest cellular affinity for the SK-MES-1 cell line
- Bmax (SK-MES-1 cells [3]; Figure 4, saturation binding, 2 hr at 37 °C, listed as 99mTc-(EDDA/tricine)-(Ser)3-HYNIC-J18): (1.9±0.3)·10^4 binding sites/cell
- binding affinity for SK-MES-1, in words (SK-MES-1 cells [3]; listed as 99mTc-peptide 2): high binding affinity; also recorded: good receptor-binding affinity
- Kd (SK-MES-1 cells [3]; saturation binding, 0.1-50 nM, 2 hr at 37 °C, blocking with 500-fold excess non-labeled peptide, three dishes per concentration, Prism 5 nonlinear regression, listed as 99mTc-HYNIC-(Ser)3-J18 (tricine/EDDA)): 3.64 ± 0.8 nM
- Intestine uptake (with contents) ([4]; 4 hr): 3.63±1.80 percentage of injected dose per whole sample
- Intestine uptake (with contents) ([4]; 24 hr): 0.59±0.29 percentage of injected dose per whole sample
- reduction of binding by pre-saturation with unlabeled J18 peptide (SK-MES-1 cells [5]; 500-fold unlabeled peptide 20 min at 37 °C, then radiolabeled peptide 2 hr at 37 °C): 7.5 fold
- specific binding to SK-MES-1, in words (SK-MES-1 cells [5]): high specificity
